The results in this text go back to patent publication US7276582 (JAPAN SCIENCE AND TECHNOLOGY AGENCY, dated 2007).

The target of assay [1] is T1, MD2 bait construct (mIP3R1: 1387-1647 amino acids) in pGBT9 (mouse, UniProt P11881 1387-1647).
T1 construct: also called IP3R1 modulatory domain bait 2; not shown: fusion partner encoded by the bait vector pGBT9 and primer-encoded linker
Kind of assay: yeast two-hybrid beta-gal assay. As for the experimental part: To determine the respective interaction domains of CARP and IP_3R1, truncated mutants of both genes were prepared and analyzed using yeast two-hybrid system. […] Interactions between CARP mutants and MD2, CARP and IP_3R1 mutants were analyzed by β-gal assay by the yeast two-hybrid system. The prepared mutant and results of β-gal assay in the yeast two-hybrid system (n=3) are shown in FIG. 5. β-gal assay was evaluated by the time of blue colony appearance, i.e., blue colony appears within 30 min (+++), 2 h (++) and 8 hr (+).
Yeast two-hybrid assay in the following examples was conducted using MATCHJMAKER™ Two-Hybrid system according to the manufacturer's protocol (Clontech Laboratories Inc., Palo Alto, Calif., USA).

In assay [2] the target is T1, MD2 bait construct (mIP3R1: 1387-1647 …). The experiment in a line: yeast two-hybrid screen of a mouse brain cDNA library with MD2 as bait.
Assay [3] has as its target T2, GST (UniProt P08515 1-218 = GST, limits assumed).
T2 construct: Control for the GST fusion proteins; its source is not described; also called GST alone; glutathione S-transferase
The experiment in a line: GST pull-down from mouse cerebellar cytosolic fraction, Western blot with anti-CARP antibody. The source says: Next, the inventors of the present application examined the interaction between CARP and IP_3R1 by means of a pull-down method in order to obtain further evidence for the interaction by biochemical methods. The inventors first developed expression system in Sf9 cells, and made IP_3R1 soluble by removing the channel domain. The soluble IP_3R1, designated GST-EL, covers both the ligand binding domain and modulatory domain (amino acids 1-2217 Of mIP_3R1) and has GST in its N terminus. Mouse cerebellar cytosolic fraction was incubated with GST-EL or GST, and binding of CARP to the recombinant proteins was analyzed by immunoblotting with anti-CARP antibody. The results are shown in photographs of FIG. 4 which are substituted for drawings.
Adult mouse cerebella were homogenized in 10 mM HEPES (pH 7.4), 320 mM Sucrose, 2 mM EDTA, 1 mM 2-mercaptoethanol, and protease inhibitors and the homogenate was centrifuged at 1,000× g for 10 min. The supernatant was centrifuged at 100,000× g for 60 min to obtain the cytosolic fraction (the supernatant) and the crude microsome (the pellet). The cytosolic fraction was added with 100 mM NaCl, and incubated with 20 μg of GST-EL or GST for 2 hours at 4° C. […] The eluted proteins were analyzed by Western blotting with anti-CARP antibody.
In general terms: A western blot detects proteins with antibodies after separation by electrophoresis.

T1 sequence (P11881 1387-1647): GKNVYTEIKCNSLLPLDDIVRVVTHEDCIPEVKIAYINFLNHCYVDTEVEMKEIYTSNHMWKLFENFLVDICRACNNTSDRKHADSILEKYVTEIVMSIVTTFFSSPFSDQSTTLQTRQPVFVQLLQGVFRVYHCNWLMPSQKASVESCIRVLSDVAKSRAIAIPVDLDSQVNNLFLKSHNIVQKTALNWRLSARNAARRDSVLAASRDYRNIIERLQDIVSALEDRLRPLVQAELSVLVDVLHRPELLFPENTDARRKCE
T2 sequence (P08515 whole entry, the tested form may be a part): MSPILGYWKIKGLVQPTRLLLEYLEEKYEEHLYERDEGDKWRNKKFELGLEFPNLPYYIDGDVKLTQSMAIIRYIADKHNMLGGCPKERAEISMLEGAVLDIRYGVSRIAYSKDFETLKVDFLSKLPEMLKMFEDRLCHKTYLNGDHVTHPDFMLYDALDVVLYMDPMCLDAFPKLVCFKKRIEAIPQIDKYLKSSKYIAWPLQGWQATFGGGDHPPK

B1: pGAD-GL-ΔC6 (CARP; 1-234 amino acids) (other)
chain: MADLSFIEDAVAFPEKEEDEEEEEEEGVEWGYEEGVEWGLVFPDANGEYQSPINLNSREARYDPSLLDVRLSPNYVVCRDCEVTNDGHTIQVILKSKSVLSGGPLPGGQEFELYEVRFHWGRENQRGSEHTVNFKAFPMELHLIHWNSTLFGSIDEAVGKPHGIAIIALFVQIGKEHVGLKAVTEILQDIQYKGKSKTIPCFNPNTLLPDPLLRDYWVYEGSLTIPPCSEGVTW
notes: Yeast two-hybrid truncation construct; not shown: fusion partner encoded by vector pGAD-GL
In the case of B1, the binding result in assay [1] is “no binding”.

B2: pGAD-GL-ΔC1 (CARP; 1-127 amino acids) (other)
chain: MADLSFIEDAVAFPEKEEDEEEEEEEGVEWGYEEGVEWGLVFPDANGEYQSPINLNSREARYDPSLLDVRLSPNYVVCRDCEVTNDGHTIQVILKSKSVLSGGPLPGGQEFELYEVRFHWGRENQRG
notes: as for B1
B2: the binding result in assay [1] is given as “no binding”.

B3: pGAD-GL-ΔC4 (CARP; 1-180 amino acids) (other)
chain: MADLSFIEDAVAFPEKEEDEEEEEEEGVEWGYEEGVEWGLVFPDANGEYQSPINLNSREARYDPSLLDVRLSPNYVVCRDCEVTNDGHTIQVILKSKSVLSGGPLPGGQEFELYEVRFHWGRENQRGSEHTVNFKAFPMELHLIHWNSTLFGSIDEAVGKPHGIAIIALFVQIGKEHVGL
notes: as for B1
Take B3: in assay [1], the binding result is listed as “no binding”.

B4: pGAD-GL-ΔC3 (CARP; 1-170 amino acids) (other)
chain: MADLSFIEDAVAFPEKEEDEEEEEEEGVEWGYEEGVEWGLVFPDANGEYQSPINLNSREARYDPSLLDVRLSPNYVVCRDCEVTNDGHTIQVILKSKSVLSGGPLPGGQEFELYEVRFHWGRENQRGSEHTVNFKAFPMELHLIHWNSTLFGSIDEAVGKPHGIAIIALF
notes: as for B1
With B4, the binding result in assay [1] is on record as “no binding”.

B5: carbonic anhydrase-related protein (CARP), full-length, yeast two-hybrid prey in pGAD-GL (other)
chain: MADLSFIEDAVAFPEKEEDEEEEEEEGVEWGYEEGVEWGLVFPDANGEYQSPINLNSREARYDPSLLDVRLSPNYVVCRDCEVTNDGHTIQVILKSKSVLSGGPLPGGQEFELYEVRFHWGRENQRGSEHTVNFKAFPMELHLIHWNSTLFGSIDEAVGKPHGIAIIALFVQIGKEHVGLKAVTEILQDIQYKGKSKTIPCFNPNTLLPDPLLRDYWVYEGSLTIPPCSEGVTWILFRYPLTISQMQIEEFRRLRTHVKGVELVEGCDGILGDNFRPTQPLSDRVIRAAFQ
notes: 13 positive clones from a mouse brain cDNA library; they contain different lengths of 5'UTR of CARP cDNA followed by a full-length coding region in frame; also called mouse CARP; not shown: fusion partner encoded by the library vector pGAD-GL (and in-frame 5'UTR of differing length); not described in the fili
B5: in assay [2], the binding result is on record as “binds”.

B6: CARP of the cytosolic fraction of mouse cerebellum (other)
chain: MADLSFIEDAVAFPEKEEDEEEEEEEGVEWGYEEGVEWGLVFPDANGEYQSPINLNSREARYDPSLLDVRLSPNYVVCRDCEVTNDGHTIQVILKSKSVLSGGPLPGGQEFELYEVRFHWGRENQRGSEHTVNFKAFPMELHLIHWNSTLFGSIDEAVGKPHGIAIIALFVQIGKEHVGLKAVTEILQDIQYKGKSKTIPCFNPNTLLPDPLLRDYWVYEGSLTIPPCSEGVTWILFRYPLTISQMQIEEFRRLRTHVKGVELVEGCDGILGDNFRPTQPLSDRVIRAAFQ
notes: Endogenous protein in a tissue fraction, detected by Western blotting with anti-CARP polyclonal antibody; also called endogenous CARP
Take B6: the binding result in assay [3] is “no binding (tested: 20 µg of GST)”.

B7: pGAD-GL-ΔC2 (CARP; 1-147 amino acids) (other)
chain: MADLSFIEDAVAFPEKEEDEEEEEEEGVEWGYEEGVEWGLVFPDANGEYQSPINLNSREARYDPSLLDVRLSPNYVVCRDCEVTNDGHTIQVILKSKSVLSGGPLPGGQEFELYEVRFHWGRENQRGSEHTVNFKAFPMELHLIHWN
notes: as for B1
With B7, the binding result in assay [1] is recorded as “no binding”.

B8: pGAD-GL-ΔC5 (CARP; 1-217 amino acids) (other)
chain: MADLSFIEDAVAFPEKEEDEEEEEEEGVEWGYEEGVEWGLVFPDANGEYQSPINLNSREARYDPSLLDVRLSPNYVVCRDCEVTNDGHTIQVILKSKSVLSGGPLPGGQEFELYEVRFHWGRENQRGSEHTVNFKAFPMELHLIHWNSTLFGSIDEAVGKPHGIAIIALFVQIGKEHVGLKAVTEILQDIQYKGKSKTIPCFNPNTLLPDPLLRDYW
notes: as for B1
For B8, the binding result in assay [1] is given as “no binding”.

B9: pGAD-GL-ΔC9 (CARP; 184-291 amino acids) (other)
chain: TEILQDIQYKGKSKTIPCFNPNTLLPDPLLRDYWVYEGSLTIPPCSEGVTWILFRYPLTISQMQIEEFRRLRTHVKGVELVEGCDGILGDNFRPTQPLSDRVIRAAFQ
notes: as for B1
Take B9: in assay [1], the binding result was “no binding”.

B10: pGAD-GL-ΔC8 (CARP; 121-291 amino acids) (other)
chain: GRENQRGSEHTVNFKAFPMELHLIHWNSTLFGSIDEAVGKPHGIAIIALFVQIGKEHVGLKAVTEILQDIQYKGKSKTIPCFNPNTLLPDPLLRDYWVYEGSLTIPPCSEGVTWILFRYPLTISQMQIEEFRRLRTHVKGVELVEGCDGILGDNFRPTQPLSDRVIRAAFQ
notes: as for B1
B10: the binding result in assay [1] is on record as “no binding”.
